The source of these data is article PMC10359491, “Identification and characterization of aptameric inhibitors of human neutrophil elastase”.

For series [1], the target named is T1, human neutrophil elastase (HNE) (Homo sapiens, UniProt P08246 30-267). As to the kind of experiment: enzyme inhibition. The settings on record: elastin-Congo red, 90% for E6 and E12, ELISA: PBS pH 7.4, 5 mM MgCl2, 10 mM KCl, 0.01% Tween 20, 20 min (temperature not stated), inhibition: 50 mM Tris pH 7.5, 150 mM NaCl, 5 mM MgCl2, 0. A general note: An ELISA detects its analyte on a solid surface through an enzyme-linked reagent.
T1 sequence (P08246 30-267): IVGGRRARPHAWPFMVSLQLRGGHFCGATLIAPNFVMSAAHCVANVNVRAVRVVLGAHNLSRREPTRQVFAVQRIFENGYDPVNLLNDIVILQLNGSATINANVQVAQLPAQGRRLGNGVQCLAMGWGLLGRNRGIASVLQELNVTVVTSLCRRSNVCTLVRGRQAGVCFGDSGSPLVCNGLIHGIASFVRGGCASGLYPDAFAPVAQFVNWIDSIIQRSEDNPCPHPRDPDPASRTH

Series [2] has as its target T1, human neutrophil elastase (HNE). As to the kind of experiment: ELISA; HNE immobilized; ELISA: PBS pH 7.4, 5 mM MgCl2, 10 mM KCl, 0.01% Tween 20, 20 min (temperature not stated); inhibition: 50 mM Tris pH 7.5, 150 mM NaCl, 10 mM KCl, 5 mM MgCl2, 0.02% Tween 20, 37 C. Particulars: protein: commercial; for Kd: label: biotin (ELISA).
Series [3] has the same target. As to the kind of experiment: enzyme inhibition; elastin-Congo red, 100 nM HNE; E6/E12 values swapped in a second sentence; ELISA: PBS pH 7.4, 5 mM MgCl2, 10 mM KCl, 0.01% Tween 20, 20 min (temperature not stated); inhibition: 50 mM Tris pH 7.5, 150 mM NaCl, 10 mM KCl, 5 mM MgCl2, 0.02% Tween 20, 37 C. The settings on record: protein: commercial, label: biotin (ELISA).

Series [4] has the same target. As to the kind of experiment: enzyme inhibition; DQ gelatin substrate; competitive; ELISA: PBS pH 7.4, 5 mM MgCl2, 10 mM KCl, 0.01% Tween 20, 20 min (temperature not stated); inhibition: 50 mM Tris pH 7.5, 150 mM NaCl, 10 mM KCl, 5 mM MgCl2, 0.02% Tween 20, 37 C. Particulars: protein: commercial, label: biotin (ELISA).
The mark [5] stands for this setting: predicted: 2 G4, 2 hairpin loops (not tested).
Where [6] appears, read: predicted: 1 G4, 3 hairpin loops (not tested).

On to dsDNA 24-mer, for which the binding signal in series [1] is 10 % inhibition.

B1: aptamer E12 (ssDNA)
DNA: CATGCTTCCCCAGGGAGATGGGCGTGGGGGTTGGGTATGGTGCTTGAGGGGCCTGGAGGAACATGCGTCGCAAAC
Take B1: the dissociation constant (Kd) – broadly, the concentration at which binding is half-saturated – in series [2] (setting [5]) was 13.9 nM. In addition, the IC50 (usually the concentration that inhibits the measured activity by half) in series [3] (setting [5]) is 178 nM. Besides, the inhibition constant Ki (usually the equilibrium dissociation constant of an inhibitor or competing ligand from its target) in series [4] (setting [5]) was 22 ± 1 nM.

B2: NC nonspecific ssDNA (ssDNA)
DNA: CATGCTTCCCCAGGGAGATGAACCCTTTGGGAAACCCTTTGGGAAACCCTTTGGGGAGGAACATGCGTCGCAAAC
In the case of B2, the binding result in series [2] (label: 5' biotin (ELISA)) was “no binding”.

B3: aptamer E6 (ssDNA)
DNA: CATGCTTCCCCAGGGAGATGAGGACGGGCGTGGGGATGGGTATGGTGCAACTCCCGAGGAACATGCGTCGCAAAC
On to B3, for which the Kd in series [2] (setting [6]) was 20.5 nM. Besides, the half-inhibitory concentration (IC50) in series [3] (setting [6]) was 173 nM. Further, the Ki in series [4] (setting [6]) is 52 ± 6 nM.
